± gives the standard error. For part of these data: This sample holds only a part of the variants without activity.
B1: glmS ribozyme (parent)
chain: AUAAAAGCGCCAGAACUACAGAAAUGUAGUUGACGAGGAGGAGGUUUAUCGAAUUUUCGGCGGAUGCCUCCAAA

What was measured:
Conditions in all cases: with glucosamine-6-phosphate
[1] = variants of: B1; experiment: kcat; higher = faster cleavage; RNA array
In short: (§1)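 Barcoded ribozyme variants on sequenced MiSeq chips were transcribed in situ by E. coli RNA polymerase and followed at 37 °C through a hybridised Cy3 probe. Glucosamine-6-phosphate at 40 μM to 10 mM in HEPES/KCl/Mg(OAc)2 buffer was flowed in, and tiles were imaged over ~14 h. Signals were normalised to baseline and to non-cleaving reference variants, and per-tile medians were fit to one- or two-exponential decays to give kobs. Weighted Michaelis–Menten fits across concentrations gave kcat and KM.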

[2] = variants of: B1; experiment: self-cleavage kobs at 640 uM GlcN6P; higher = faster cleavage; RNA array
In short: as §1

[3] = variants of: B1; experiment: self-cleavage kobs at 2500 uM GlcN6P; higher = faster cleavage; RNA array
In short: as §1

[4] = variants of: B1; experiment: self-cleavage kobs at 10000 uM GlcN6P; higher = faster cleavage; RNA array
In short: as §1

[5] = variants of: B1; experiment: self-cleavage kobs at 40 uM GlcN6P; higher = faster cleavage; RNA array
In short: as §1

[6] = variants of: B1; experiment: self-cleavage kobs at 160 uM GlcN6P; higher = faster cleavage; RNA array
In short: as §1

[7] = variants of: B1; experiment: KM; higher = weaker cofactor use; RNA array
In short: as §1

## C16U G44C
[1]
  kcat: 6.71e-05 ± 2.3e-05 s⁻¹
[2]
  self-cleavage kobs at 640 uM GlcN6P: 6.27e-05 ± 1.7e-05 s⁻¹
[3]
  self-cleavage kobs at 2500 uM GlcN6P: 2.88e-05 ± 1.4e-05 s⁻¹
[4]
  self-cleavage kobs at 10000 uM GlcN6P: 8.38e-05 ± 1.3e-05 s⁻¹

## C16U G44A
[1]
  kcat: 0.000353 ± 9.4e-05 s⁻¹
[2]
  self-cleavage kobs at 640 uM GlcN6P: 7.56e-05 ± 1.5e-05 s⁻¹
[3]
  self-cleavage kobs at 2500 uM GlcN6P: 0.000392 ± 7.1e-05 s⁻¹
[4]
  self-cleavage kobs at 10000 uM GlcN6P: 0.000277 ± 3.6e-05 s⁻¹

## A36U C71U
[1]
  kcat: < 1e-05 s⁻¹
[2]
  self-cleavage kobs at 640 uM GlcN6P: < 1e-05 s⁻¹

## U47A C67A
[1]
  kcat: 0.00576 ± 0.0027 s⁻¹
[5]
  self-cleavage kobs at 40 uM GlcN6P: 0.000186 ± 2.7e-05 s⁻¹
[6]
  self-cleavage kobs at 160 uM GlcN6P: 0.000303 ± 5.4e-05 s⁻¹
[2]
  self-cleavage kobs at 640 uM GlcN6P: 0.0014 ± 0.00021 s⁻¹
[3]
  self-cleavage kobs at 2500 uM GlcN6P: 0.00288 ± 0.00043 s⁻¹
[4]
  self-cleavage kobs at 10000 uM GlcN6P: 0.00568 ± 0.0013 s⁻¹

## G37C U54C
[1]
  kcat: 6.94e-05 ± 3e-05 s⁻¹
[4]
  self-cleavage kobs at 10000 uM GlcN6P: 3.48e-05 ± 7.4e-06 s⁻¹

## A39G U56C
[1]
  kcat: 0.00799 ± 0.002 s⁻¹
[7]
  KM: 3.24 ± 1.1 mM
[5]
  self-cleavage kobs at 40 uM GlcN6P: 0.000109 ± 1.2e-05 s⁻¹
[6]
  self-cleavage kobs at 160 uM GlcN6P: 0.000656 ± 0.00018 s⁻¹
[2]
  self-cleavage kobs at 640 uM GlcN6P: 0.00106 ± 0.00014 s⁻¹
[3]
  self-cleavage kobs at 2500 uM GlcN6P: 0.0039 ± 0.00058 s⁻¹
[4]
  self-cleavage kobs at 10000 uM GlcN6P: 0.00611 ± 0.00076 s⁻¹

## C34G C68A
[1]
  kcat: 2.06e-05 ± 8.4e-06 s⁻¹

## A15U U55A
[1]
  kcat: 0.00715 ± 0.0012 s⁻¹
[7]
  KM: 2.06 ± 0.49 mM
[5]
  self-cleavage kobs at 40 uM GlcN6P: 0.000164 ± 1.8e-05 s⁻¹
[6]
  self-cleavage kobs at 160 uM GlcN6P: 0.000472 ± 5.3e-05 s⁻¹
[2]
  self-cleavage kobs at 640 uM GlcN6P: 0.00147 ± 0.00021 s⁻¹
[3]
  self-cleavage kobs at 2500 uM GlcN6P: 0.00588 ± 0.0011 s⁻¹
[4]
  self-cleavage kobs at 10000 uM GlcN6P: 0.00586 ± 0.00053 s⁻¹

## G32A U65A
[1]
  kcat: 0.000307 ± 0.0001 s⁻¹
[2]
  self-cleavage kobs at 640 uM GlcN6P: 5.66e-05 ± 1.2e-05 s⁻¹
[3]
  self-cleavage kobs at 2500 uM GlcN6P: 0.000104 ± 1.4e-05 s⁻¹
[4]
  self-cleavage kobs at 10000 uM GlcN6P: 0.000243 ± 4.4e-05 s⁻¹

## G41A A48U
[1]
  kcat: 4.08e-05 ± 6.1e-06 s⁻¹
[5]
  self-cleavage kobs at 40 uM GlcN6P: < 1e-05 s⁻¹
[6]
  self-cleavage kobs at 160 uM GlcN6P: < 1e-05 s⁻¹
[3]
  self-cleavage kobs at 2500 uM GlcN6P: 3.76e-05 ± 1.1e-05 s⁻¹
[4]
  self-cleavage kobs at 10000 uM GlcN6P: 3.63e-05 ± 1e-05 s⁻¹

## G9U A42G U47C
[1]
  kcat: < 1e-05 s⁻¹
[6]
  self-cleavage kobs at 160 uM GlcN6P: < 1e-05 s⁻¹
[2]
  self-cleavage kobs at 640 uM GlcN6P: < 1e-05 s⁻¹

## C8G C61A
[1]
  kcat: < 1e-05 s⁻¹
[5]
  self-cleavage kobs at 40 uM GlcN6P: < 1e-05 s⁻¹
[6]
  self-cleavage kobs at 160 uM GlcN6P: < 1e-05 s⁻¹
[3]
  self-cleavage kobs at 2500 uM GlcN6P: < 1e-05 s⁻¹

## U57C U65G
[1]
  kcat: 3.4e-05 ± 3.5e-06 s⁻¹
[3]
  self-cleavage kobs at 2500 uM GlcN6P: 3.03e-05 ± 1.3e-05 s⁻¹
[4]
  self-cleavage kobs at 10000 uM GlcN6P: 3.07e-05 ± 1.1e-05 s⁻¹

## G13U U69G
[1]
  kcat: 2.13e-05 ± 6.6e-06 s⁻¹

## A14U A48G
[1]
  kcat: 1.29e-05 ± 5.7e-06 s⁻¹
[6]
  self-cleavage kobs at 160 uM GlcN6P: < 1e-05 s⁻¹

## A12U U56A U65G
[1]
  kcat: 0.00677 ± 0.0022 s⁻¹
[7]
  KM: 6.82 ± 3 mM
[5]
  self-cleavage kobs at 40 uM GlcN6P: 6.29e-05 ± 2e-05 s⁻¹
[6]
  self-cleavage kobs at 160 uM GlcN6P: 0.00018 ± 4e-05 s⁻¹
[2]
  self-cleavage kobs at 640 uM GlcN6P: 0.000445 ± 0.00012 s⁻¹
[3]
  self-cleavage kobs at 2500 uM GlcN6P: 0.00177 ± 0.00048 s⁻¹
[4]
  self-cleavage kobs at 10000 uM GlcN6P: 0.00413 ± 0.00071 s⁻¹

## G37C C50A C58A U69A
[1]
  kcat: 5.12e-05 ± 2.4e-05 s⁻¹
[2]
  self-cleavage kobs at 640 uM GlcN6P: 8.62e-05 ± 3.4e-05 s⁻¹

## C11U G29A
[1]
  kcat: 0.000628 ± 0.00013 s⁻¹
[7]
  KM: 4.19 ± 1.4 mM
[2]
  self-cleavage kobs at 640 uM GlcN6P: 9.17e-05 ± 1.1e-05 s⁻¹
[3]
  self-cleavage kobs at 2500 uM GlcN6P: 0.000194 ± 3e-05 s⁻¹
[4]
  self-cleavage kobs at 10000 uM GlcN6P: 0.000474 ± 5.6e-05 s⁻¹

## C11A C34G G60U A64G
[1]
  kcat: < 1e-05 s⁻¹
[5]
  self-cleavage kobs at 40 uM GlcN6P: < 1e-05 s⁻¹
[2]
  self-cleavage kobs at 640 uM GlcN6P: < 1e-05 s⁻¹
